Assay results: paper PMC3689955

Molecular target: XRCC4/Ligase IV (XL) (UniProt Q13426)
Sequence (Q13426 whole entry, chain 1 of 2): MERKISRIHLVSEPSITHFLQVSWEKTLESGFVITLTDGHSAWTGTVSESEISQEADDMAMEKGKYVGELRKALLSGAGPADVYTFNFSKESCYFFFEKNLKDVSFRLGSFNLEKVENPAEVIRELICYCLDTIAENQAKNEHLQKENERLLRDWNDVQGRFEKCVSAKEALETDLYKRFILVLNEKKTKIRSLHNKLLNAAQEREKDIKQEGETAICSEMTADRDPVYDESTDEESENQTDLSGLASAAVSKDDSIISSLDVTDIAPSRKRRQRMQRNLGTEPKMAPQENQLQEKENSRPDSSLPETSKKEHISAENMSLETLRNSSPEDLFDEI
Sequence (P49917 whole entry, chain 2 of 2, further chain): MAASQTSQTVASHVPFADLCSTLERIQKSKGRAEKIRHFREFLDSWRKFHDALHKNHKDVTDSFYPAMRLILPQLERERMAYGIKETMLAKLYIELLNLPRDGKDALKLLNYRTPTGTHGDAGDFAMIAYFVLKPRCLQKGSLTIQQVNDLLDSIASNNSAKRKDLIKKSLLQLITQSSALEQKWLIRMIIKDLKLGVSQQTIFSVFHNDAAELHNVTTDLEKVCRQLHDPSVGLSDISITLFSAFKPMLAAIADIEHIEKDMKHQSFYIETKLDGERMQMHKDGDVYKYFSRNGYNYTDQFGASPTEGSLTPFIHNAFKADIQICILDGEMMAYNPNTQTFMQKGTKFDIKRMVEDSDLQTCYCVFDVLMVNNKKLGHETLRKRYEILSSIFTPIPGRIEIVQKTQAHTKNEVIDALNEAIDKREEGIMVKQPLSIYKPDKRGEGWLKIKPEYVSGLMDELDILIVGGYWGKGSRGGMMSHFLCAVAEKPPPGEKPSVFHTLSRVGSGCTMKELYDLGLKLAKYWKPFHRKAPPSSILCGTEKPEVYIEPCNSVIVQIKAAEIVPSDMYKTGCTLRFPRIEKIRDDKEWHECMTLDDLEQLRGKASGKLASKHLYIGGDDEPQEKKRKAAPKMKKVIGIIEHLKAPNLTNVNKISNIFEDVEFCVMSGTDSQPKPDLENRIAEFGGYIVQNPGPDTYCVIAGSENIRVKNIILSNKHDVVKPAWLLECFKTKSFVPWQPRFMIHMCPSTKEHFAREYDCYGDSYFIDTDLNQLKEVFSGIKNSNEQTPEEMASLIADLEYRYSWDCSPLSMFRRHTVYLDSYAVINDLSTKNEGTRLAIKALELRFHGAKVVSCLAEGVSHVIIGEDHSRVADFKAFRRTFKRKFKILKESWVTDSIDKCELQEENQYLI

Sequence of XRCC4-like factor (XLF, also known as Cernunnos) (Q9H9Q4 whole entry): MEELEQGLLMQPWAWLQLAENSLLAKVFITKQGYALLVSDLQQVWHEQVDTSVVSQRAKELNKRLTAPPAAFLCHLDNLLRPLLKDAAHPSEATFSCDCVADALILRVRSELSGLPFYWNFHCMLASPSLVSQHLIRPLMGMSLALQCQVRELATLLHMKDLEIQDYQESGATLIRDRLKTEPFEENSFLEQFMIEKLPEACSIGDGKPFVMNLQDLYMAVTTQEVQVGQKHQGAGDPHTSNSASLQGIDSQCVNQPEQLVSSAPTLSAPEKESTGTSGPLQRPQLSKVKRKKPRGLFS

## XRCC4-like factor (XLF, also known as Cernunnos) (from UniProt Q9H9Q4 1-299) (natural protein)
  stoichiometry N (XL to XLF molar ratio): 1
